Results: patent US20130109846A1 (published 2013)
Where a chain is given by its changes, count along the chain named.

B1: 1h-32 (other)
VL: DIQMTQSPSSLSASVGDRVTITCRASQNIGHGLAWYQQKPGKAPKLLIYWVSLLQSGVPSRFSGSGSGTDFTLTISSLQPEDFATYYCQQTLSKPFTFGQGTKVEIKR
B2: 1h-34 (other)
VL: B1 VL with N28Y, H31T, G32S, W50H, V51S, L53G, S60L, L92A, S93L, K94R
B3: 1h-33 (other)
VL: DIQMTQSPSSLSASVGDRVTITCRASSNIHNRLNWYQQKPGKAPKLLIYAASSLQSGVPSRFSGSGSGTDFTLTISSLQPEDFATYYCRQWIQPPWTFGQGTKVEIKR
B4: 1h-99-2114 (other)
VH: EVQLLESGGGLVQPGGSLRLSCAASGFTFKDKNMSWARQAPGKGLEWVSWIEAIGVQTFYADSVKGRFTISRDNSKNTLYLQMNSLRAEDTAVYYCAKSPFGPLYGFDYRGQGTLVTVSS
B5: 1h-99-245 (other)
VH: B4 VH with K30D, D31S, K32A, I54S, V56F
B6: 1h-99-224 (other)
VH: B4 VH with K30S, D31H, K32N, A37V, A53D, I54T, V56T
B7: 1h-99-297 (other)
VH: B4 VH with K30D, D31S, K32A
B8: 1h-99-221 (other)
VH: B4 VH with K30A, D31R, K32S, A37V, A53D, I54T, V56T
B9: 1h-99-2115 (other)
VH: B4 VH with A37V, I54P, K65R, K98R
B10: 1h-99-256 (other)
VH: B4 VH with K30D, D31S, K32A, A37V
B11: 1h-99-267 (other)
VH: B4 VH with K30Y, D31R, K32S, A37V, I54S
B12: 1h-99-243 (other)
VH: B4 VH with K30D, D31S, K32A, A37G, I54S
B13: 1h-99-249 (other)
VH: B4 VH with K30D, D31S, K32A, A37V, A53D
B14: 1h-99-225 (other)
VH: B4 VH with K30R, D31L, K32Q, A37V, A53D, I54T, V56T
B15: 1h-99-263 (other)
VH: B4 VH with K30Y, D31K, K32A, A37V, I54S
B16: 1h-99-2116 (other)
VH: B4 VH with A37V, I54S
B17: 1h-99-222 (other)
VH: B4 VH with K30Q, D31R, K32S, A37V, A53D, I54T, V56T
B18: 1h-99-260 (other)
VH: B4 VH with K30D, D31S, K32A, I54N, V56P
B19: 1h-99-246 (other)
VH: B4 VH with K30D, D31S, K32A, I54S, V56G
B20: 1h-99-270 (other)
VH: B4 VH with K30Y, D31K, K32A, I54S
B21: 1h-99-269 (other)
VH: B4 VH with D31S, K32A, A37V, I54S
B22: 1h-99-226 (other)
VH: B4 VH with D31S, K32A, A37V, A53D, I54T, V56T
B23: 1h-99-278 (other)
VH: B4 VH with K30P, D31H, K32S, A53D, I54T, V56T
B24: 1h-99-236 (other)
VH: B4 VH with K30D, D31S, K32A, A37V, I54P, V56K, Q112R
B25: 1h-99-218 (other)
VH: B4 VH with K30D, D31K, K32S, A53D, I54T, V56T
B26: 1h-99-268 (other)
VH: B4 VH with D31S, K32A, A37V, I54P, K65R, K98R
B27: 1h-99-220 (other)
VH: B4 VH with K30Y, D31R, K32S, A37V, A53D, I54T, V56T
B28: 1h-99-276 (other)
VH: B4 VH with K30N, D31R, K32A, A53D, I54T, V56T
B29: 1h-99-275 (other)
VH: B4 VH with A53D, I54T, V56T, K98R
B30: 1h-99-217 (other)
VH: B4 VH with K30S, D31R, K32S, A37G, A53D, I54T, V56T
B31: 1h-99-266 (other)
VH: B4 VH with K30Y, D31R, K32S, A37V, I54P, K65R, K98R
B32: 1h-99-241 (other)
VH: B4 VH with K30D, D31S, K32A, A37V, A53N, I54N, V56P, N74D
B33: 1h-99-227 (other)
VH: B4 VH with K30N, D31H, K32A, A37V, A53D, I54T, V56T, S75Y
B34: 1h-99-229 (other)
VH: B4 VH with K30A, D31R, K32T, A53D, I54T, V56T
B35: 1h-99-277 (other)
VH: B4 VH with K30D, D31S, K32A, I54V
B36: 1h-99-254 (other)
VH: B4 VH with K30D, D31S, K32A, A53S, I54S, V56G
B37: 1h-99-230 (other)
VH: B4 VH with K30D, D31S, K32A, A37V, A53S
B38: 1h-99-228 (other)
VH: B4 VH with K30H, D31R, K32A, A37V, A53D, I54T, V56T, F107S
B39: 1h-99-250 (other)
VH: B4 VH with K30D, D31S, K32A, I54T, V56G
B40: 1h-99-262 (other)
VH: B4 VH with K30Y, D31K, K32A, A37V, I54P, K65R, K98R
B41: 1h-99-264 (other)
VH: B4 VH with K30D, D31K, K32S, A37V, I54P, K65R, K98R
B42: 1h-35 (other)
VL: DIQMTQSPSSLSASVGDRVTITCRASQYIGSALSWYQQKPGKAPKLLIYRASNLQSGVPSRFSGSGSGTDFTLTISSLQPEDFATYYCQQLAIRPFTFGQGTKVEIKR
B43: 1h-35-5 (other)
VL: B42 VL with L33I, K42R, N53Y, E105G
B44: 1h-35-2 (other)
VL: B42 VL with S34G, N53H

The binders below were run against human CD28 (human, UniProt P10747 19-220) (assay: cell-based or functional assay).

| Luciferase assay (EC50) [nM] | MLR assay (EC50) [nM] | Binder |
| --- | --- | --- |
| 4500 |  | B1 |
| 2900 |  | B2 |
| 1600 |  | B3 |
| 4 | 2 | B4 |
| 6 | 11 | B5 |
| 15 | 28 | B6 |
| 6 | 6 | B7 |
| 12 | 17 | B8 |
| 3 | 12 | B9 |
| 9 | 7 | B10 |
| 6 | 4 | B11 |
| 4 | 8 | B12 |
| 6 | 11 | B13 |
| 14 | 28 | B14 |
| 6 | 4 | B15 |
| 5 | 4 | B16 |
| 16 | 28 | B17 |
| 11 | 13 | B18 |
| 3 | 8 | B19 |
| 4 | 6 | B20 |
| 10 | 5 | B21 |
| 10 | 23 | B22 |

| Luciferase assay (EC50) [nM] | MLR assay (EC50) [nM] | Binder |
| --- | --- | --- |
| 12 | 13 | B23 |
| 21 | 14 | B24 |
| 10 | 12 | B25 |
| 11 | 13 | B26 |
| 10 | 12 | B27 |
| 5 | 18 | B28 |
| 6 | 10 | B29 |
| 12 | 15 | B30 |
| 8 | 4 | B31 |
| 17 | 22 | B32 |
| 18 | 33 | B33 |
| 15 | 24 | B34 |
| 6 | 9 | B35 |
| 11 | 7 | B36 |
| 9 | 14 | B37 |
| 12 | 46 | B38 |
| 9 | 8 | B39 |
| 6 | 8 | B40 |
| 5 | 3 | B41 |
| 1900 | 2000 | B42 |
| 261 | 248 | B43 |
| 279 | 197 | B44 |
